What was measured:
4H3782-AA = molecular target: T1, 4H3782-AA; assay: two-hybrid library CCmax; details: mean of both orientations;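 further: natural log of median RNA to DNA barcode read ratio; higher means stronger binding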
T1 chain: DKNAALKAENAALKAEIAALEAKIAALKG

4H3915-AA = molecular target: T2, 4H3915-AA; assay: two-hybrid library CCmax; details: mean of both orientations;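 further: natural log of median RNA to DNA barcode read ratio; higher means stronger binding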
T2 chain: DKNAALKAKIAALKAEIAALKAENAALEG

4H341-AA = molecular target: T3, 4H341-AA; assay: two-hybrid library CCmax;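 further: natural log of median RNA to DNA barcode read ratio; higher means stronger binding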
T3 chain: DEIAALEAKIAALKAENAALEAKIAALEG

4H3449-AA = molecular target: T4, 4H3449-AA; assay: two-hybrid library CCmax; details: mean of both orientations;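 further: natural log of median RNA to DNA barcode read ratio; higher means stronger binding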
T4 chain: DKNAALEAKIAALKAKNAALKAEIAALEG

4H3595-AA = molecular target: T5, 4H3595-AA; assay: two-hybrid library CCmax; details: mean of both orientations
T5 chain: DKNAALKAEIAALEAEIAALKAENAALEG

4H380-AA = molecular target: T6, 4H380-AA; assay: two-hybrid library CCmax; details: mean of both orientations
T6 chain: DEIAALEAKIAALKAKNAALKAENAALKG

4H63-AA = molecular target: T7, 4H63-AA; assay: two-hybrid library CCmax; details: mean of both orientations
T7 chain: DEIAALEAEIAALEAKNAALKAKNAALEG

4H3629-AA = molecular target: T8, 4H3629-AA; assay: two-hybrid library CCmax; details: mean of both orientations
T8 chain: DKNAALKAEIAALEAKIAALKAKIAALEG

4H464-AA = molecular target: T9, 4H464-AA; assay: two-hybrid library CCmax; details: mean of both orientations
T9 chain: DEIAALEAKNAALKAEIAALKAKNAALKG

4H3969-AA = molecular target: T10, 4H3969-AA; assay: two-hybrid library CCmax
T10 chain: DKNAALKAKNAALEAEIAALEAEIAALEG

4H3974-AA = molecular target: T11, 4H3974-AA; assay: two-hybrid library CCmax; details: mean of both orientations
T11 chain: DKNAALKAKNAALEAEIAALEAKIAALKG

4H3619-AA = molecular target: T12, 4H3619-AA; assay: two-hybrid library CCmax; details: mean of both orientations
T12 chain: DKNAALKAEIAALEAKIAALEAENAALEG

4H446-AA = molecular target: T13, 4H446-AA; assay: two-hybrid library CCmax; details: mean of both orientations
T13 chain: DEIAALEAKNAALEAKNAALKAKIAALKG

4H3777-AA = molecular target: T14, 4H3777-AA; assay: two-hybrid library CCmax; details: mean of both orientations
T14 chain: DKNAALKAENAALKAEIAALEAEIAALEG

4H3939-AA = molecular target: T15, 4H3939-AA; assay: two-hybrid library CCmax; details: mean of both orientations
T15 chain: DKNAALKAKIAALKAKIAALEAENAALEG

4H432-AA = molecular target: T16, 4H432-AA; assay: two-hybrid library CCmax; details: mean of both orientations
T16 chain: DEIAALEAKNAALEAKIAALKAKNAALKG

4H483-AA = molecular target: T17, 4H483-AA; assay: two-hybrid library CCmax; details: mean of both orientations
T17 chain: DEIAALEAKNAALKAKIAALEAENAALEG

4H3414-AA = molecular target: T18, 4H3414-AA; assay: two-hybrid library CCmax; details: mean of both orientations
T18 chain: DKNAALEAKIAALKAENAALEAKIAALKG

4H797-bA = molecular target: T19, 4H797-bA; assay: two-hybrid library CCNG1
T19 chain: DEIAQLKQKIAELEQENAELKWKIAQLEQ

4H908-bA = molecular target: T20, 4H908-bA; assay: two-hybrid library CCNG1
T20 chain: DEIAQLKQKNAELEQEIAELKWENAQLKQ

4H4001-bA = molecular target: T21, 4H4001-bA; assay: two-hybrid library CCNG1
T21 chain: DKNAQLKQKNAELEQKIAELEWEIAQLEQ

4H568-bA = molecular target: T22, 4H568-bA; assay: two-hybrid library CCNG1
T22 chain: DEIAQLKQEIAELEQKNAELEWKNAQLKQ

4H72-bA = molecular target: T23, 4H72-bA; assay: two-hybrid library CCNG1
T23 chain: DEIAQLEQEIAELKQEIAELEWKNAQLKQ

4H687-bA = molecular target: T24, 4H687-bA; assay: two-hybrid library CCNG1
T24 chain: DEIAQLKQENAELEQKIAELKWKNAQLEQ

4H754-bA = molecular target: T25, 4H754-bA; assay: two-hybrid library CCNG1; details: mean of both orientations
T25 chain: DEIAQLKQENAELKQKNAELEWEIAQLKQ

4H883-bA = molecular target: T26, 4H883-bA; assay: two-hybrid library CCNG1
T26 chain: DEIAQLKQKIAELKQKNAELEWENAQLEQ

4H3855-bA = molecular target: T27, 4H3855-bA; assay: two-hybrid library CCNG1
T27 chain: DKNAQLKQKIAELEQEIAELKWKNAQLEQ

4H967-bA = molecular target: T28, 4H967-bA; assay: two-hybrid library CCNG1
T28 chain: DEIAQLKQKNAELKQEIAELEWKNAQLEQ

4H918-bA = molecular target: T29, 4H918-bA; assay: two-hybrid library CCNG1
T29 chain: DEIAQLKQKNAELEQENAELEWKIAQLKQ

4H454-bA = molecular target: T30, 4H454-bA; assay: two-hybrid library CCNG1
T30 chain: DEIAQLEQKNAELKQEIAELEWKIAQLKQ

4H953-bA = molecular target: T31, 4H953-bA; assay: two-hybrid library CCNG1
T31 chain: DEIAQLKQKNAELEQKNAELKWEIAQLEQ

4H717-bA = molecular target: T32, 4H717-bA; assay: two-hybrid library CCNG1
T32 chain: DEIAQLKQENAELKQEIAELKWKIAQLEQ

4H607-bA = molecular target: T33, 4H607-bA; assay: two-hybrid library CCNG1
T33 chain: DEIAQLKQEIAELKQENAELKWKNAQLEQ

APC7099-AA = molecular target: T34, APC7099-AA; assay: two-hybrid library CCmax; details: mean of both orientations
T34 chain: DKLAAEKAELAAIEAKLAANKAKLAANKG

APC8910-AA = molecular target: T35, APC8910-AA; assay: two-hybrid library CCmax; details: mean of both orientations
T35 chain: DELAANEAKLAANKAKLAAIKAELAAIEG

APC5383-AA = molecular target: T36, APC5383-AA; assay: two-hybrid library CCmax
T36 chain: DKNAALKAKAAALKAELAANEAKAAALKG

APC6108-AA = molecular target: T37, APC6108-AA; assay: two-hybrid library CCmax; details: mean of both orientations
T37 chain: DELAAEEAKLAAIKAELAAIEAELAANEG

APC9096-AA = molecular target: T38, APC9096-AA; assay: two-hybrid library CCmax; details: mean of both orientations
T38 chain: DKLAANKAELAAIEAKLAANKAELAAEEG

APC8191-AA = molecular target: T39, APC8191-AA; assay: two-hybrid library CCmax; details: mean of both orientations
T39 chain: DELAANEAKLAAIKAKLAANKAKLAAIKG

APC9319-AA = molecular target: T40, APC9319-AA; assay: two-hybrid library CCmax; details: mean of both orientations
T40 chain: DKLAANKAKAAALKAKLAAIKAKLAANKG

Binder: DEIAALEAKIAALKAENAALEAKIAALEG [4H341-AA]
- interaction score (4H3782-AA): 0.558
- interaction score (4H3915-AA): -1.31
- interaction score (4H341-AA): 1.84
- interaction score (4H3449-AA): 0.461
- interaction score (4H3595-AA): -1.29
- interaction score (4H380-AA): -1.07
- interaction score (4H63-AA): 1.74
- interaction score (4H3629-AA): 2.2
- interaction score (4H464-AA): 0.352
- interaction score (4H3969-AA): 0.0125
- interaction score (4H3974-AA): 0.589
- interaction score (4H3619-AA): -1.22
- interaction score (4H446-AA): 0.795
- interaction score (4H3777-AA): -1.17
- interaction score (4H3939-AA): -1.29
- interaction score (4H432-AA): -1.21
- interaction score (4H483-AA): 0.738
- interaction score (4H3414-AA): 0.22

Binder: DKNAQLKQKIAELEQEIAELKWKNAQLEQ [4H3855-bA]
- interaction score (4H797-bA): -0.875
- interaction score (4H908-bA): -0.51
- interaction score (4H4001-bA): 0.153
- interaction score (4H568-bA): -0.231
- interaction score (4H72-bA): 0.932
- interaction score (4H687-bA): -0.551
- interaction score (4H754-bA): -1.21
- interaction score (4H883-bA): -1.04
- interaction score (4H3855-bA): 0.372
- interaction score (4H967-bA): -0.636
- interaction score (4H918-bA): -1.43
- interaction score (4H454-bA): -0.709
- interaction score (4H953-bA): -1.69
- interaction score (4H717-bA): -0.336
- interaction score (4H607-bA): -0.96

Binder: DKNAALKAKAAALKAELAANEAKAAALKG [APC5383-AA]
- interaction score (APC7099-AA): -1.61
- interaction score (APC8910-AA): -1.6
- interaction score (APC5383-AA): -1.83
- interaction score (APC6108-AA): -1.32
- interaction score (APC9096-AA): -1.73
- interaction score (APC8191-AA): -2.31
- interaction score (APC9319-AA): -2.03
